By Kd is commonly meant the free concentration of one partner at which half of the binding sites on the other are occupied at equilibrium, for simple one-to-one binding. Broadly, the koff is the first-order rate constant of dissociation. In general, kon refers to a measure of how fast the partners come together.

Experiment [1] has as its target RSV F protein, C-terminal truncated, secreted from recombinant baculovirus (respiratory syncytial virus) (UniProt P03420). Put plainly: SPR (BIAcore), F protein amine-coupled, Kd = kd/ka.
Experiment [2] shares this target. As to the kind of experiment: SPR (BIAcore), F protein amine-coupled, Mab injected 25-300 nM. (In general: Surface plasmon resonance follows binding to a sensor surface in real time, without labels.)
Experiment [3] deals with T1, RSV F protein, C-terminal truncated, secreted from recombinant baculovirus (respiratory syncytial virus, UniProt P03420 26-524).
T1 construct: also called RSV F glycoprotein; RSV F antigen
The experiment is described as above.

Consider “chimeric 1129 antibody (murine 1129 VH and VL joined to human C-gamma 1 and C-kappa)”, for which the Kd in experiment [1] was 1.5 nM. Moreover, in experiment [2], the koff is 7.5e-05 s⁻¹, the association rate constant (kon) was 50000 M⁻¹ s⁻¹ and the t1/2 came out at 2.6 h.
As to murine monoclonal antibody MAb 1129, the Kd in experiment [1] came to 11.4 nM. In experiment [2], the kon amounted to 35000 M⁻¹ s⁻¹ and the t1/2 is 0.48 h.

B1: murine monoclonal antibody MAb 1308F (antibody, V domains shown)
VH: EVQKQQSGAELVRPGALVKLSCKASGFNIKDYYIYWVKQRPEQGLEWIGWIDPENGNTVFDPLFQGKASITSDTSSNTAYLQLSSLTSEDTAVYYCAYYGTSSFDFWGQGTTLTVSS
VL: DIKMTQSPSSMYVSLGERVTITCKASQDINRYLNWFQQKPGKSPKTLIHRANRLVDGVPSRFSGSGSGQEYSLTISSLEFEDMGIYYCLQFHEFPYTFGGGTKLEIL
As to B1, the t1/2 in experiment [3] came out at 5.1 h.

B2: humanized 1129 antibody (CDR-grafted MAb 1129, human COR VH / K102 VL frameworks, human IgG1 kappa) (antibody, V domains shown)
VH: QVTLRESGPALVKPTQTLTLTCTFSGFSLSTSGMSVGWIRQPPGKALEWLADIWWDDKKDYNPSLKSRLTISKDTSKNQVVLKVTNMDPADTATYYCARSMITNWYFDVWGAGTTVTVSS
VL: DIQMTQSPSTLSASVGDRVTITCKCQLSVGYMHWYQQKPGKAPKLWIYDTSKLASGVPSRFSGSGSGTEFTLTISSLQPDDFATYYCFQGSGYPFTFGGGTKLEIK
Consider B2, for which the t1/2 in experiment [3] amounted to 2.8 h.

B3: humanized 1308F antibody (CDR-grafted MAb 1308F, human HV3 VH / K102 VL frameworks, human IgG1 kappa) (antibody, V domains shown)
VH: QVQLVQSGAEVKKPGASVKVSCKASGFNIKDYYIYWVRQAPGQGLEWIGWIDPENGNTVFDPKFNGRVTMTRDTSTSTVYMELSSLRSEDTAVYYCAYYGTSSFDFWGQGTTLTVSS
VL: DIQMTQSPSTLSASVGDRVTITCKASQDINRYLNWYQQKPGKAPKLLIYRANRLVDGVPSRFSGSGSGTEFTLTISSLQPDDFATYYCLQFHEFPYTFGGGTKLEIL
Turning to B3, the t1/2 in experiment [3] is 3.5 h.

Source of the values: patent US20020102257A1 (published 2002).
